Test results published in article doi:10.1101/085266.

Tests used:
[1] = molecular target: Bacillaceae bacterium MTCC 10057 Geobac cargo protein with C-terminal His6 tag (Bacillaceae bacterium MTCC 10057); test: SEC
[2] = molecular target: Bacillaceae bacterium MTCC 10057 encapsulin capsid protein (Bacillaceae bacterium MTCC 10057); test: co-purification with encapsulin capsids
[3] = molecular target: Streptomyces sp. AA4 hemerythrin cargo with C-terminal His6 tag (Streptomyces sp. AA4); test: SEC
[4] = molecular target: Streptomyces sp. AA4 encapsulin capsid protein (Streptomyces sp. AA4); test: co-purification with encapsulin capsids
[5] = molecular target: Kuenenia stuttgartiensis encapsulin without the N-terminal cytochrome domain (Kuenenia stuttgartiensis) (UniProt Q1Q6L7); test: co-purification with encapsulin capsids

Bacillaceae bacterium MTCC 10057 Geobac cargo protein with C-terminal His6 tag (natural protein)
stoichiometry N [1]: 2

Bacillaceae bacterium MTCC 10057 Ferredoxin cargo (Fer), with N-terminal targeting peptide (natural protein)
molecules of cargo per 180 subunit capsid (molecules per 180 subunit capsid) [2]: 10

Bacillaceae bacterium MTCC 10057 Geobac cargo protein, with C-terminal targeting peptide (natural protein)
molecules of cargo per 180 subunit capsid (molecules per 180 subunit capsid) [2]: 150

Streptomyces sp. AA4 hemerythrin cargo with C-terminal His6 tag (natural protein)
stoichiometry N [3]: 2

Streptomyces sp. AA4 hemerythrin cargo (Heme), with C-terminal targeting peptide (natural protein)
molecules of cargo per 60 subunit capsid (molecules per 60 subunit capsid) [4]: 20

NIR domain (N-terminal cupredoxin domain) of the Kuenenia stuttgartiensis NIR-HAO fusion protein (domain or fragment)
copies of cargo per 180mer capsid (copies per 180mer capsid) [5]: 15
